From the nanobody polyreactivity screen of Harvey et al. (2022)

Assay: yeast display, Sf9 membrane polyspecificity reagent, FACS + sequencing; frameworks hold sequencing errors
In short: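 Galactose induction of a Saccharomyces cerevisiae BJ5465 synthetic nanobody display library ran 36–48 hours. The cells were then stained for 1 hour at 4 °C with 10% biotinylated, detergent-solubilized Sf9 membrane reagent, pulled down on streptavidin microbeads and FACS-sorted into low and high (top ~1%) gates on expression and reagent-binding fluorescence. Labels for polyreactivity follow the gate of origin.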

Sequence	polyreactivity (PSR sort gate)
QVQLVESGGGLVQAGGSLRLSCAASGRTFPRYVMGWYRQAPGKERELVAAITSSGGSTYYADSVKGRFTISRDKAMNTVYLQMNSLKPEDTAVYYCAAFARPYSGQYAYRLDYWGQGTQVTVSS	high polyreactivity
QDQLVESGGGLVHAGGSLRLSCAASVSIFVRNAMGWYRQAPGKERELVAADSVKGRFTISRDNAKNTVYLQMNSLKPEDTAVYYCNKDYIIRRGPIVYYGFDYWGQGTQVTVSS	low polyreactivity
QVQLVESGGGLVQAGGSLRLSCAASGSTPVYAMGWYRQAPGKERELVAAIRRRASSTYYADSVKGRFTISRDNAKNPVYLQMNSLKPEDTAVYYCAVGRVNGVLLGYWGQGTQVTVSS	high polyreactivity
QVQLVESGGGLVQAGGSLRLSCAASGSNFGYYPMGWYRQATGKERELVAAISWSDGSTYYADSVKGRFTISRDNAKNTVYLQMNSRKPEDTAVYYCAARFTPYITSDDGHYDYWGQGTQVTVSS	low polyreactivity
QVQLVESGGGLVQAGGSLRLSCAASGFIFRSNAMGLYRQAPGKEREFVAAISSRGGSTTYEDSVKGRFTISRDNAKNTVYLQMNSLKPEDTAVYYCARDWYYYPQYRQRYYYWGQGTQVTVSS	high polyreactivity
QVQLVESGGGLVQAGGSLRLSCAASGLIFLQYVMGWSRQAPGKEREFVATITDDGDTTYYADSVKGRFTISRDNAKNTVYLQMNSLKPEDTAVYYCAADAEGSASKYDYWGQGTQVTVSS	low polyreactivity
QVQLVESGGGLVQAGGSLRLSCAASGGIFDYNAMGWYRQAPGKERELVAAITNGGSTNYADSVKGRFTISRDNAKNSVYLQMNSLKPEDTAVYYCATGYFYDYWGQGTQVTVSS	low polyreactivity
QVQLVESGGGLLQAGGSLRLICAASGRIFTYNAMGWYRQAPGKERELVAAISRRGGTTYYADSVKGRFTISRDNAKNTVYLQMNSLKPEDTAVYYCAALLYYATDDDYWGQGTQVTVSS	high polyreactivity
QVQLVESGGGLVQAGGSLRLCCAASGSIFLLNAMGWYRQAPGKERELVAAISWGGGSTYYADSVKGRFTISRDNAKNTVYLQMNSLKPEDTAVYYCNASVTLGLEVDYSGQGTQVTVSS	low polyreactivity
QVQLVESGGGLVQAGGSLRLSCAASGFTFVYYAMGWYRQAPGKERELVATITRSGDSTYYADSVKGRFTISRDNAKNTVYLQMNSLKPEDTAVYYCAAQPGTASYAGDGDSWGQGTQVTVSS	low polyreactivity
QVQLVESGGGLVQAGGSLRLSCAASGFIFVTNVMGWYRQAPGKERELVAAISRRGTNTYYADSVKGRFTISRDNAKNTVYLQMNSLKPEDTAVYYCNKLVFHTGGFRYDYWGQGTQVTVSS	high polyreactivity
QVQLVESGGGLDQAGGSLRLSCAASGFTFPRYAMGWYRQAPGKERELVAAITLIGGSTYYADSVKGRFTISRDNAKNTVYLQMNSLKPEDTAVYYCAATDRKVGVYHSYYYWGQGTQVTVSS	low polyreactivity
QVQLVESGGGLVQAGGILRLSCAASGRTFERNAMGWYRQSPGKEREFVAAITEIGGSTYYADSVKGRFTISRDNAKNTVYLQMNSLKPEDTAVYYCAKDGTYSPYDYWGQGTQVTVSS	low polyreactivity
QVQLVESGGGLVQAGGSLRLSCAASGFIFDWNTMGWYRQAPGKERELVAAITESSGSTYYADSVKGRFTISRDNAKNTVYLQMNSLKPEDTAVYYCAADLDVYVSIGSRFHFDYWGQGTQVTVSS	low polyreactivity
QVQLVESGGGLVQAGGSLRLSCAASGSIFLDYAMGWYRQAPGKERELVAGITISGGSTYYADSVKGRFTISRDNAKNTVYLQMNSLKPEDTSVYYCAKVAPRSSSSQEYYYWGQGTQVTVSS	low polyreactivity
QVQLVESGGGLVQARGRLRLSFAASGSIFSTNAMGWYRQATGKERELVAAISSSDGITYYADSVKGRFTISRDNAMNTVYLQMNSLKPEDTAVYYCAAEYAYGIEESSAYNIYFYWGQGTQVTVSS	high polyreactivity
QVQLVESGGGLVQAGGSLRLSCAASGSTFDSNAMGWYRQAPGKERELVAASDWSGGSTYYADSVKGRFTISRDNAKNTVYLQMNSLNPEDTGVYYGDADDSSINYGDFDYWGQGTQVTVTS	low polyreactivity
QVQLVESGGGLVQAGGSLRLSCAASGRIFDNYGMGWYRQAPGKERELVAAISSGGGTYYADSVKGRFTISRDNAKNTVYLQMNSLKPEDTAVYYCAKRRVYDRSFGRYDYWGQGTQVTVSS	low polyreactivity
QVQLVESGAGLVQAGGSLRLSCAASGGTFLYYAMGWYRQAPGKERELVAVINSNGGSTYYADSVKGRFTISRDNAKNTVYLQMNSLKPEDTAVYYCAADYQSYVYIGYGYWGQGTQVTVSS	low polyreactivity
QVQLVESPGGLVKAGGSLRLSCDASGRTFYGYAMGWYRQPPGKEREFVAAITWSGSSTNYADSVKGRFTISRDNATNSVYLQMNSLKPDDTAVYYCAASYYAPYWSMDNWGQGTQETVSS	high polyreactivity
QVQLVETGGGLVQAGGSLRLSCAASGSIFLGNAMGWYRQAPGKERELVAAISGGDSTNYADSVKGRFTISRDNAKNTVYLQMKSLKPEDTAVYYCNALTHWAPASYEYDYWGQCTQVTVSS	low polyreactivity
QVQLVESGGGLVQAGGSLRLSCAASGRTFHYNAMGWYRQAPGKERELVAAISRDGGSTDYADSVKGRFTISRDNAKNTVYLQMNSLKPEDTAVYYCAAPIGKQEFSRDYDYWGQGTQVTVSS	low polyreactivity

Sequence	polyreactivity (PSR sort gate)
QVQLVEARGGLVQAGGSLRLSCAASGSILRYTMGWYRPAPGKERELVAAITRSGTSTYYADSVKGRFTISRDNAKNTVYLQMNSLKPEDTAVYYCAAREKYASHEYDYWGQGTQVTVSS	high polyreactivity
QVQLVESGGGLVQAGGSLRLSCAASGYTFYPYAMGWYRQAPGKERELVAAITTSGGSTYYADSVKGRFTISRDNAKNTVYLQMNSLKPEDTAVYYCARDSLQVFYPYASDDYWGQGTQVTVSS	low polyreactivity
QVQLVESGGGLVQAGGSLRLSCAASGSILWSYAMGWYRQAPGKERELVAAIRSGGSTYYADSVKGRFTISRDNAKNTVYLQMNSLKPEDTAVYYCNATYAPLFEYDYWGQGTQVTVSS	low polyreactivity
QVQLVESGGGLVQAGGSLRLSCAASGSIFSRYTLGWYRQAPGKVRELVARINSSGTSTYYADSLKGRFTISRDKAKNTVYLQMNSLKPEDTAVYYCARTSRHVRYDYWGQGTQVTVSS	low polyreactivity
QVQLVESGGGLVQAGGSLRLSCAASGSIFDSNTMGWYRQAPGKERELVAAITGTGTSTYYADSVKGRFTISRDNAKNTVYLQMNSLKPEDTAVYYCAADLEYKTWWYDYWGQGTQVTVSS	low polyreactivity
QVQLVESGGGLVQAGGSLRLSCDDSGRIFGGYGMGWYTQAPGKEGELVAAISARGGSTYYADSVKGRFTISRDNAKNTVYLQMNSLKPEDTEFYYCAAVEASSRGYYDYDYWGQGTQVTVSS	low polyreactivity
QVQLVESGGGLVQAGGSLRLSCAASGSTFSPYAMVWYRQEPGKERELVAAITWSGGSTYYADSVKGRFTISRDNAKNSVYLQMNSLKPEDTAVYYCNAVPYLSIEYDYWGQGTQVTVSS	high polyreactivity
QVQLVESGGGLVQAGGSLRLSCAASGRTFRYYAMGWYIQAPGKERELVATITGSGGSTYYADSVKGRFTISRDNAKNTVYLQMNSLKPEDTAVYYCNARKVRYPYRWYDYWGQGTQVTVSS	high polyreactivity
QVQLVESGGGLVQAGGSLRLSCAASGRTFRSYAMGWYRQAPGKERELVASITSSGRTNYADSVKGRFTISRDNAKNTVYLQMNSLKPEDTAVYYCAAVRYYDYLSSWRYDYWGQGTQVTVSS	low polyreactivity
QVQLVESGGGLVQAGGSLRLSCAASGITFEGYAMGWYRQAPRKERELVAAITGSGSTTYYADSVKGRFTISRDNAKNTVYLQMNSLKPEDTAVYYCAADVSYKLYWGQVTQVTVSS	low polyreactivity
QVQLVESGGGLVQAGGSLRLSCAASGFTSGYNLMGWYRQAPGKERELVAAISWRGTSTYYADSVKGRFTISRDNAKNTVYLQMNSLKPEDTAVYYCAARQRWYWRGYDYWGQGTQVTVSS	high polyreactivity
QVQLVESGGGLVQAGGSLRLSCAASGLIFAPYAMGLYRQAPGKERELVAAISFRGGSTYYADSVKGRFTISRDNAKNTVYFQMNSLKPEDTAVYYSAADWLYDYGEYYYWGQGTQVTVSS	high polyreactivity
QVQLVESGGGLVQAGGSLRLSCAASGYTFGTYAMGWYRQAPGKERELVAAITTNVGSTYYADSVKGRFTISRDNAKNTVYLQMNSLKPEDTAVYYCAADVGWRFGDITYWAYDYWGQGTQVTVSS	low polyreactivity
QVQLVESGGGLVQAGGSLRLICDASGRIFATNAIGWYRQAPGKERELVATITRSAGRTYYADSVKGRFTISRDNAKNTVYLQMNSLKPEDTAVYYCAASYWDTEPGYREYDYWGQGTQVTVSS	low polyreactivity
QVQLVESGGGLVQAGGSLRLSCAPSGSIFAQYAMGWYRQAPGKERELVATISSVGSTNYADSVKGRFTISRDNAKNTVYLQMNSLKPEDTAVYYCNAVRSGWGYFYGLNYWGQGTQVTVSS	low polyreactivity
QVQLVESGGGLVQAGGSLRLSCAASGFIFATNAMGWYRQAPGKERELVAAISRSGGSTYYADSVKGRFTISRDNAKNTVYLQMYSLKPEDTAVYYCATPRYRYYTIYDYGYWGQGTQVNVSS	high polyreactivity
QVQRVETGGGLVQARGSLRLSCAASGRIFACYTMGWFRQAPGKERELDAAISWNGGRTYYADSVKGRFTISRDNAKNTVYLQMNSLKPEDTAVYYCAAGKTPQKYGGFNYWGQGTQVTVSS	high polyreactivity
QVQLVESGGGLVQAGGSLRLSCAASGGTFSYYAMGCYRQAPGKERELVASISTDGGSTYYADSVKGRFTISRDNAKNTVYLQMNSLKPEDTAVYYCNARPRGYSDRYGYWGQGTQVTVSS	high polyreactivity
QVQLVESGAGLVQAGGSLRLSCAPSGSIFWWYAMVWYRQAPGKERELVAVISGGTSTYYADSVKGRFTISRDNAKNTVYLQMNSLKPEDTAVYYCNADVFSKVSYFRYIEYDYWGQGTQVTVSS	high polyreactivity
QVQLVETGRGLVQAGGSLRISCAPCGFTFWRNAMGGYRQAPGKERELVAAINWSGGSPYYADSVKGRFTISRDNAMNTVYLQINSRKADDTAVYYCNRRGQYTFWPIHEYWGQGTQVTVSS	high polyreactivity
QVQLVESGGGLVQAGGSLRLSCAASGIIFPINAMGWYRPAPGKERELVAGIDESGGGTYYADSVKGRFTISRDNAKNTLYLQMNSLKPEDTAVYYCAAVTLAPRAYDYWGQGTEVTVSS	low polyreactivity
